Test results from patent US20170190753A1 (LABORATOIRE FRANCAIS DU FRACTIONNEMENT ET DES …, published 2017).

The binders below were run against C3 convertase complex (UniProt P01024 23-1663; P00751 260-764) (assay: cell-based or functional assay).
Wherever C3 convertase activity % of the control is given: test concentration or dose not given here.

C3 convertase complex, sequence (P01024 23-1663, chain 1 of 2): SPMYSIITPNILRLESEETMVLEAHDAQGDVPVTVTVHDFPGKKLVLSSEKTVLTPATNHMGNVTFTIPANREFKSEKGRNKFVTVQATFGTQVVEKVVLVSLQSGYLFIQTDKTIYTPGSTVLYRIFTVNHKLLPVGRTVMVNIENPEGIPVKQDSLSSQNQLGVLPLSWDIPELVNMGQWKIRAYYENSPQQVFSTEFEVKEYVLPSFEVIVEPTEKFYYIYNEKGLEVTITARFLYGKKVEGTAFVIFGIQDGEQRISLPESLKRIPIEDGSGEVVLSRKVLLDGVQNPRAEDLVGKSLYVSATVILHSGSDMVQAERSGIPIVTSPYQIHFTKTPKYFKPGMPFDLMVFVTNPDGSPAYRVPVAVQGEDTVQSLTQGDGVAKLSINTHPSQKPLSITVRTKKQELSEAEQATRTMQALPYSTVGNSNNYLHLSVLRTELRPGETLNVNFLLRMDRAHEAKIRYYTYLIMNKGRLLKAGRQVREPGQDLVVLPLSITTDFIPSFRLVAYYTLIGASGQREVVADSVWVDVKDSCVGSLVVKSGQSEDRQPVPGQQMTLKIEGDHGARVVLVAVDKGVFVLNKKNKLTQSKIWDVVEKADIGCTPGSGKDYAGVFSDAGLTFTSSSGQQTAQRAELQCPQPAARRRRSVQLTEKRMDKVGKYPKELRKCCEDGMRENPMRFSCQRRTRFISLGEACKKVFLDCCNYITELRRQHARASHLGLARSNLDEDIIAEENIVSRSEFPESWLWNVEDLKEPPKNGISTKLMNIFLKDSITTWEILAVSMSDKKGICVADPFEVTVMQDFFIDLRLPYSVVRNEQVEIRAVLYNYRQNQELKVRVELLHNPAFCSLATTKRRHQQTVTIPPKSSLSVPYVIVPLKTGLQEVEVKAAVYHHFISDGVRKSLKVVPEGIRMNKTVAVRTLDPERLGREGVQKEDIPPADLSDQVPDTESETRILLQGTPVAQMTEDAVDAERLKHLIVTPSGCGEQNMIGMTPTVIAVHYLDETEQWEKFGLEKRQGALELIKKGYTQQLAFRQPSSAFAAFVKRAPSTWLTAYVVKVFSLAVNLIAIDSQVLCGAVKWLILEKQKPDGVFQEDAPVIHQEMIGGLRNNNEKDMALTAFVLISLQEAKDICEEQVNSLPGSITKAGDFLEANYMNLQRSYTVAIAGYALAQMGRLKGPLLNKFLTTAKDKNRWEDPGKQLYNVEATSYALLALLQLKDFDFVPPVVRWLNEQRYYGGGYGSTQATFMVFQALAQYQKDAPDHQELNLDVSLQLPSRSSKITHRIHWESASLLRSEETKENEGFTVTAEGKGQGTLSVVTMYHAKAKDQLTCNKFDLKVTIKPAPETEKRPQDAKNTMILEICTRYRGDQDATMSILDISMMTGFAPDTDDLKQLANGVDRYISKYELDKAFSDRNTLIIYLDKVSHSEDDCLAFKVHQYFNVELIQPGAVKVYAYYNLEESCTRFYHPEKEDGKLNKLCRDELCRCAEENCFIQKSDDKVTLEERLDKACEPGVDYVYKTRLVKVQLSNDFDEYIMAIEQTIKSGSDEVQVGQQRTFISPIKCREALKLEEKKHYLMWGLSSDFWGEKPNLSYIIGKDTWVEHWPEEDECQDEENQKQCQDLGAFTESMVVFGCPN
C3 convertase complex, sequence (P00751 260-764, chain 2 of 2): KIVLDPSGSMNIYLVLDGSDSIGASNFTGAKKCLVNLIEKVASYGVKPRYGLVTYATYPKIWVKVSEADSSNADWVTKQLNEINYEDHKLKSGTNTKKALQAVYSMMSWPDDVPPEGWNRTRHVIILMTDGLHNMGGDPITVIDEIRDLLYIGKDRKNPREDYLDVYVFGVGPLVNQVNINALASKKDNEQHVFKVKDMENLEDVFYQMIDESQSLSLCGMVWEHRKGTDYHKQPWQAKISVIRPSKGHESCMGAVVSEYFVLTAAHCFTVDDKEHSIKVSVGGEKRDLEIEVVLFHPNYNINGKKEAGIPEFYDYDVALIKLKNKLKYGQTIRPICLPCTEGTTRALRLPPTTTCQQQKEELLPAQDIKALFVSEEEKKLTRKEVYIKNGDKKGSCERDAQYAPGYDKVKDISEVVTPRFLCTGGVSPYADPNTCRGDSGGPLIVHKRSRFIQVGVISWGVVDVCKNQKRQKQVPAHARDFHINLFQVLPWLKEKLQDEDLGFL

Binder	C3 convertase activity % of the control	C3 convertase activity IC50 [µg/mL]
pCEP4-1NT9-12CT20 (other) EDCNELPPRRNTEILTGSWSDQTYPEGTQAIYKCRPGYRSLGNVIMVCRKGEWVALNPLRKCQKRPCGHPGDTPFGTFTLTGGNVFEYGVKAVYTCNEGYQLLGEINYRECDTDGWTNDIPICEVVKCLPVTAPENGKIVSSAMEPDREYHFGQAVRFVCNSGYKIEGDEEMHCSDDGFWSKEKPKCVEISCKSPDVINGSPISQKIIYKENERFQYKCNMGYEYSERGDAVCTESGWRPLPSCEEKSCDNPYIPNGDYSPLRIKHRTGDEITYQCRNGFYPATRGNTAKCTSTGWIPAPRCTLKPCDYPDIKHGGLYHENMRRPYFPVAVGKYYSYYCDEHFETPSGSYWDHIHCTQDGWSPAVPCLRKCYFPYLENGYNQNHGRKFVQGKSIDVACHPGYALPKAQTTVTCMENGWSPTPRCIRVKTCSKSSIDIENGFISESQYTYALKEKAKYQCKLGYVTADGETSGSITCGKDGWSAQPTCIKSCDIPVFMNARTKNDFTWFKLNDTLDYECHDGYESNTGSTTGSIVCGYNGWSDLPICYEREGASGCGDIPELEHGWAQLSSPPYYYGDSVEFNCSESFTMIGHRSITCIHGVWTQLPQCVAIDKLKKCKSSNLIILEEHLKNKKEFDHNSNIRYRCRGKEGWIHTVCINGRWDPEVNCSMAQIQLCPPPPQIPNSHNMTTTLNYRDGEKVSVLCQENYLIQEGEEITCKDGRWQSIPLCVEKIPCSQPPQIEHGTINSSRSSQESYAHGTKLSYTCEGGFRISEENETTCYMGKWSSPPQCEGLPCKSPPEISHGVVAHMSDSYQYGEEVTYKCFEGFGIDGPAIAKCLGEKWSHPPSCIKTDCLSLPSFENAIPMGEKKDVYKAGEQVTYTCATYYKMDGASNVTCINSRWTGRPTCRDTSCVNPPTVQNAYIVSRQMSKYPSGERVRYQCRSPYEMFGDEEVMCLNGNWTEPPQCKDSTGKCGPPPPIDNGDITSFPLSVYAPASSVEYQCQNLYQLEGNKRITCRNGQWSEPPKCLHPCVISREIMENYNIALRWTAKQKLYSRTGESVEFVCKRGYRLSSRSHTLRTTCWDGKLEYPTCAKRGGSGHHHHHH	30 % of the control	0.307
pCEP4-1NT8-9CT20 (other) EDCNELPPRRNTEILTGSWSDQTYPEGTQAIYKCRPGYRSLGNVIMVCRKGEWVALNPLRKCQKRPCGHPGDTPFGTFTLTGGNVFEYGVKAVYTCNEGYQLLGEINYRECDTDGWTNDIPICEVVKCLPVTAPENGKIVSSAMEPDREYHFGQAVRFVCNSGYKIEGDEEMHCSDDGFWSKEKPKCVEISCKSPDVINGSPISQKIIYKENERFQYKCNMGYEYSERGDAVCTESGWRPLPSCEEKSCDNPYIPNGDYSPLRIKHRTGDEITYQCRNGFYPATRGNTAKCTSTGWIPAPRCTLKPCDYPDIKHGGLYHENMRRPYFPVAVGKYYSYYCDEHFETPSGSYWDHIHCTQDGWSPAVPCLRKCYFPYLENGYNQNYGRKFVQGKSIDVACHPGYALPKAQTTVTCMENGWSPTPRCIRVKTCSKSSIDIENGFISESQYTYALKEKAKYQCKLGYVTADGETSGSITCGKDGWSAQPTCIKSGASGCDIPVFMNARTKNDFTWFKLNDTLDYECHDGYESNTGSTTGSIVCGYNGWSDLPICYERECELPKIDVHLVPDRKKDQYKVGEVLKFSCKPGFTIVGPNSVQCYHFGLSPDLPICKEQVQSCGPPPELLNGNVKEKTKEEYGHSEVVEYYCNPRFLMKGPNKIQCVDGEWTTLPVCIVEESTCGDIPELEHGWAQLSSPPYYYGDSVEFNCSESFTMIGHRSITCIHGVWTQLPQCVAIDKLKKCKSSNLIILEEHLKNKKEFDHNSNIRYRCRGKEGWIHTVCINGRWDPEVNCSMAQIQLCPPPPQIPNSHNMTTTLNYRDGEKVSVLCQENYLIQEGEEITCKDGRWQSIPLCVEKIPCSQPPQIEHGTINSSRSSQESYAHGTKLSYTCEGGFRISEENETTCYMGKWSSPPQCEGLPCKSPPEISHGVVAHMSDSYQYGEEVTYKCFEGFGIDGPAIAKCLGEKWSHPPSCIKTDCLSLPSFENAIPMGEKKDVYKAGEQVTYTCATYYKMDGASNVTCINSRWTGRPTCRDTSCVNPPTVQNAYIVSRQMSKYPSGERVRYQCRSPYEMFGDEEVMCLNGNWTEPPQCKDSTGKCGPPPPIDNGDITSFPLSVYAPASSVEYQCQNLYQLEGNKRITCRNGQWSEPPKCLHPCVISREIMENYNIALRWTAKQKLYSRTGESVEFVCKRGYRLSSRSHTLRTTCWDGKLEYPTCAKRGGSGHHHHHH	27 % of the control	0.489
pCEP4-1NT9-16CT20 (other) EDCNELPPRRNTEILTGSWSDQTYPEGTQAIYKCRPGYRSLGNVIMVCRKGEWVALNPLRKCQKRPCGHPGDTPFGTFTLTGGNVFEYGVKAVYTCNEGYQLLGEINYRECDTDGWTNDIPICEVVKCLPVTAPENGKIVSSAMEPDREYHFGQAVRFVCNSGYKIEGDEEMHCSDDGFWSKEKPKCVEISCKSPDVINGSPISQKIIYKENERFQYKCNMGYEYSERGDAVCTESGWRPLPSCEEKSCDNPYIPNGDYSPLRIKHRTGDEITYQCRNGFYPATRGNTAKCTSTGWIPAPRCTLKPCDYPDIKHGGLYHENMRRPYFPVAVGKYYSYYCDEHFETPSGSYWDHIHCTQDGWSPAVPCLRKCYFPYLENGYNQNYGRKFVQGKSIDVACHPGYALPKAQTTVTCMENGWSPTPRCIRVKTCSKSSIDIENGFISESQYTYALKEKAKYQCKLGYVTADGETSGSITCGKDGWSAQPTCIKSCDIPVFMNARTKNDFTWFKLNDTLDYECHDGYESNTGSTTGSIVCGYNGWSDLPICYEREGASGCKSPPEISHGVVAHMSDSYQYGEEVTYKCFEGFGIDGPAIAKCLGEKWSHPPSCIKTDCLSLPSFENAIPMGEKKDVYKAGEQVTYTCATYYKMDGASNVTCINSRWTGRPTCRDTSCVNPPTVQNAYIVSRQMSKYPSGERVRYQCRSPYEMFGDEEVMCLNGNWTEPPQCKDSTGKCGPPPPIDNGDITSFPLSVYAPASSVEYQCQNLYQLEGNKRITCRNGQWSEPPKCLHPCVISREIMENYNIALRWTAKQKLYSRTGESVEFVCKRGYRLSSRSHTLRTTCWDGKLEYPTCAKRGGSGHHHHHH	25 % of the control	0.418
pCEP4-1NT7-11CT20 (other) EDCNELPPRRNTEILTGSWSDQTYPEGTQAIYKCRPGYRSLGNVIMVCRKGEWVALNPLRKCQKRPCGHPGDTPFGTFTLTGGNVFEYGVKAVYTCNEGYQLLGEINYRECDTDGWTNDIPICEVVKCLPVTAPENGKIVSSAMEPDREYHFGQAVRFVCNSGYKIEGDEEMHCSDDGFWSKEKPKCVEISCKSPDVINGSPISQKIIYKENERFQYKCNMGYEYSERGDAVCTESGWRPLPSCEEKSCDNPYIPNGDYSPLRIKHRTGDEITYQCRNGFYPATRGNTAKCTSTGWIPAPRCTLKPCDYPDIKHGGLYHENMRRPYFPVAVGKYYSYYCDEHFETPSGSYWDHIHCTQDGWSPAVPCLRKCYFPYLENGYNQNYGRKFVQGKSIDVACHPGYALPKAQTTVTCMENGWSPTPRCIRVKTGASGCGPPPELLNGNVKEKTKEEYGHSEVVEYYCNPRFLMKGPNKIQCVDGEWTTLPVCIVEESTCGDIPELEHGWAQLSSPPYYYGDSVEFNCSESFTMIGHRSITCIHGVWTQLPQCVAIDKLKKCKSSNLIILEEHLKNKKEFDHNSNIRYRCRGKEGWIHTVCINGRWDPEVNCSMAQIQLCPPPPQIPNSHNMTTTLNYRDGEKVSVLCQENYLIQEGEEITCKDGRWQSIPLCVEKIPCSQPPQIEHGTINSSRSSQESYAHGTKLSYTCEGGFRISEENETTCYMGKWSSPPQCEGLPCKSPPEISHGVVAHMSDSYQYGEEVTYKCFEGFGIDGPAIAKCLGEKWSHPPSCIKTDCLSLPSFENAIPMGEKKDVYKAGEQVTYTCATYYKMDGASNVTCINSRWTGRPTCRDTSCVNPPTVQNAYIVSRQMSKYPSGERVRYQCRSPYEMFGDEEVMCLNGNWTEPPQCKDSTGKCGPPPPIDNGDITSFPLSVYAPASSVEYQCQNLYQLEGNKRITCRNGQWSEPPKCLHPCVISREIMENYNIALRWTAKQKLYSRTGESVEFVCKRGYRLSSRSHTLRTTCWDGKLEYPTCAKRGGSGHHHHHH	134 % of the control	0.265

Next, values leading:

C3 convertase activity % of the control	C3 convertase activity IC50 [µg/mL]	Binder
30 % of the control	0.402	pCEP4-1NT8-13CT20 (other) EDCNELPPRRNTEILTGSWSDQTYPEGTQAIYKCRPGYRSLGNVIMVCRKGEWVALNPLRKCQKRPCGHPGDTPFGTFTLTGGNVFEYGVKAVYTCNEGYQLLGEINYRECDTDGWTNDIPICEVVKCLPVTAPENGKIVSSAMEPDREYHFGQAVRFVCNSGYKIEGDEEMHCSDDGFWSKEKPKCVEISCKSPDVINGSPISQKIIYKENERFQYKCNMGYEYSERGDAVCTESGWRPLPSCEEKSCDNPYIPNGDYSPLRIKHRTGDEITYQCRNGFYPATRGNTAKCTSTGWIPAPRCTLKPCDYPDIKHGGLYHENMRRPYFPVAVGKYYSYYCDEHFETPSGSYWDHIHCTQDGWSPAVPCLRKCYFPYLENGYNQNHGRKFVQGKSIDVACHPGYALPKAQTTVTCMENGWSPTPRCIRVKTCSKSSIDIENGFISESQYTYALKEKAKYQCKLGYVTADGETSGSITCGKDGWSAQPTCIKSGASGCKSSNLIILEEHLKNKKEFDHNSNIRYRCRGKEGWIHTVCINGRWDPEVNCSMAQIQLCPPPPQIPNSHNMTTTLNYRDGEKVSVLCQENYLIQEGEEITCKDGRWQSIPLCVEKIPCSQPPQIEHGTINSSRSSQESYAHGTKLSYTCEGGFRISEENETTCYMGKWSSPPQCEGLPCKSPPEISHGVVAHMSDSYQYGEEVTYKCFEGFGIDGPAIAKCLGEKWSHPPSCIKTDCLSLPSFENAIPMGEKKDVYKAGEQVTYTCATYYKMDGASNVTCINSRWTGRPTCRDTSCVNPPTVQNAYIVSRQMSKYPSGERVRYQCRSPYEMFGDEEVMCLNGNWTEPPQCKDSTGKCGPPPPIDNGDITSFPLSVYAPASSVEYQCQNLYQLEGNKRITCRNGQWSEPPKCLHPCVISREIMENYNIALRWTAKQKLYSRTGESVEFVCKRGYRLSSRSHTLRTTCWDGKLEYPTCAKRGGSGHHHHHH
38 % of the control	0.244	pCEP4-1NT4-10CT20 (other) EDCNELPPRRNTEILTGSWSDQTYPEGTQAIYKCRPGYRSLGNVIMVCRKGEWVALNPLRKCQKRPCGHPGDTPFGTFTLTGGNVFEYGVKAVYTCNEGYQLLGEINYRECDTDGWTNDIPICEVVKCLPVTAPENGKIVSSAMEPDREYHFGQAVRFVCNSGYKIEGDEEMHCSDDGFWSKEKPKCVEISCKSPDVINGSPISQKIIYKENERFQYKCNMGYEYSERGDAVCTESGWRPLPSCEEKSGASGCELPKIDVHLVPDRKKDQYKVGEVLKFSCKPGFTIVGPNSVQCYHFGLSPDLPICKEQVQSCGPPPELLNGNVKEKTKEEYGHSEVVEYYCNPRFLMKGPNKIQCVDGEWTTLPVCIVEESTCGDIPELEHGWAQLSSPPYYYGDSVEFNCSESFTMIGHRSITCIHGVWTQLPQCVAIDKLKKCKSSNLIILEEHLKNKKEFDHNSNIRYRCRGKEGWIHTVCINGRWDPEVNCSMAQIQLCPPPPQIPNSHNMTTTLNYRDGEKVSVLCQENYLIQEGEEITCKDGRWQSIPLCVEKIPCSQPPQIEHGTINSSRSSQESYAHGTKLSYTCEGGFRISEENETTCYMGKWSSPPQCEGLPCKSPPEISHGVVAHMSDSYQYGEEVTYKCFEGFGIDGPAIAKCLGEKWSHPPSCIKTDCLSLPSFENAIPMGEKKDVYKAGEQVTYTCATYYKMDGASNVTCINSRWTGRPTCRDTSCVNPPTVQNAYIVSRQMSKYPSGERVRYQCRSPYEMFGDEEVMCLNGNWTEPPQCKDSTGKCGPPPPIDNGDITSFPLSVYAPASSVEYQCQNLYQLEGNKRITCRNGQWSEPPKCLHPCVISREIMENYNIALRWTAKQKLYSRTGESVEFVCKRGYRLSSRSHTLRTTCWDGKLEYPTCAKRGGSGHHHHHH
